Measured values reported in the supplement of paper PMC9170038.

Tested on: MS2 coat protein
Experiment: apparent KD of MS2 coat protein; designed switch direction (-1 OFF switch, 1 ON switch): 1; higher = weaker reporter binding
How it was run: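 SNAP-549-labelled MS2 coat protein was titrated, doubling from 0.7 or 1.5 nM to 3 µM, over designed RNA switches transcribed on Illumina chips by stalled E. coli RNA polymerase. Runs were done without input, with 200 uM small-molecule ligand, or with an oligonucleotide input. Apparent KD is the per-design median over clusters of curve-fitted normalised fluorescence.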

[1] = Eterna round: R95, input ligand: FMN 200 uM
[2] = Eterna round: R95, input ligand: microRNA oligo, concentration not stated
[3] = Eterna round: R95, input ligand: none
[4] = input ligand: microRNA oligo, concentration not stated

Sequence	apparent KD of MS2 coat protein [1] [µM]	apparent KD of MS2 coat protein [2] [µM]	apparent KD of MS2 coat protein [3] [µM]	apparent KD of MS2 coat protein [4] [µM]	apparent KD of MS2 coat protein (input ligand: FMN 200 uM) [µM]	apparent KD of MS2 coat protein (input ligand: none) [µM]
AGUGAAGAAGCUGAGGAUAUCGUAAGGAGGACAUGAGGAUCACCCAUGUGUGUGGAAUUGGAGGACGAGAAGGCAGAGGAGUGGG [JR_SS2_Sub057] (puzzle: Same State 2)	0.0393	0.0426	0.0227			
AGUUGUAAUACAGGAUAUAUAUUAUUUUUAUUUAUAGAAGGGUAAUCACAUGAGGAUCACCCAUGUAUAUACGAGGAAGAAGAG [JMF's solution 2] (Eterna round: R96, puzzle: Same State NG 1)				0.194		
AGUUGUGGAAAACUAUAGCAAAAGUAUGUACAUGAGGAUCACCCAUGUCAUGUACAAGCUUUUUGCUCGUCUUAAAA [ak 4 mod of one Eli's designs.] (puzzle: Sensor for hsa-mir-208a)	0.023	0.021	0.0233			
AUAAAACACAUGAGGAUCACCCAUGUGGCCGAAGAAGGCACACAGGAUAUCAAGCAACUAAAGCUUGAGAAGGGUGAGACAAAA [Quistera] (Eterna round: R96, puzzle: Same State NG 3)				0.0307	0.494	0.0923
AUAAAACAUGAGGAUCACCCAUGUAGACGGAGAAACGUCACAUAGGAUAUAGUCAGCGGCGUUGACUAGAAGGGUGGUAGAAAA [Qubeedbi] (Eterna round: R96, puzzle: Same State NG 3)				0.0974	0.286	0.251
AUAAAACAUGAGGAUCACCCAUGUCAACAAAGAUGAGGAUAUGUACAGACUUCGGUCUGUACAGAAGGCAUAUAAU [salish99_ss1_r3_099] (puzzle: Same State 1)	0.0154	0.0152	0.0139			
AUAAAACAUGAGGAUCACCCAUGUCAACAAAGUCGAGGAUAUGGGCAAAUAAAAUAAGAACCAGAAGGCGAAUAAC [salish99_SS1_r3_003] (Eterna round: R96, puzzle: Same State 1)				0.215	0.0397	0.282
AUAAAACAUGAGGAUCACCCAUGUCAACAAAGUCGAGGAUAUGGGCAAAUAAAAUAAGAACCAGAAGGCGAAUAAC [salish99_SS1_r3_003] (puzzle: Same State 1)		0.339				
AUAAAACAUGAGGAUCACCCAUGUCAACAAAGUCGAGGAUAUGGGCAAAUAUAAUAAGAACCAGAAGGCGAAUAAU [salish99_ss1_r3_023] (puzzle: Same State 1)	0.0361	0.204	0.336			
AUAAAACAUGAGGAUCACCCAUGUCAACAUAGUCGAGGAUAUGGGCAAAUAAAAUAAGAACCAGAAGGCGAAUAAU [salish99_ss1_r3_040] (puzzle: Same State 1)	0.0505	0.714	0.51			
AUAAGGCAAGCUUUUUUCUCGUAGUGUAAACAUGAGGAUCACCCAUGUGCCCACCCUGGAUCUUUGGAUCGCAAAAC [Ceatgeor] (puzzle: Sensor for hsa-mir-208a)	0.0239	0.0186	0.0237			
AUAAGGCAAGCUUUUUUCUCGUUGUGUAAACAUGAGGAUCACCCAUGUGCCCACCCUGGAUCUUUGGAUCGCAGAAC [Mais] (puzzle: Sensor for hsa-mir-208a)	0.0408	0.0175	0.0408			
AUAAGUUUGAUGCUCGUCUCUCCGUACAGACAUGAGGAUCACCCAUGUAGUCGGGCAGUAGCCCGGCCAGUAUGGCC [Raatbeor] (puzzle: Sensor for hsa-mir-208a)	0.103	0.0288	0.119			
AUACUCAUGUAAGGAUAUGCAGCCGAAACGGCUGCAGAAGGUACUAUAAUACAUGAGGAUCACCCAUGUCAAAAUUAUUUAGUU [Mat - Same State NG 1 - JL mod - D99] (Eterna round: R96, puzzle: Same State NG 1)				0.0219	0.0195	0.0223
AUACUCAUGUAAGGAUAUGCAGCCGUUUCGGCUGCAGAAGGUACUAUAAUACAUGAGGAUCACCCAUGUCUCUCGCAUUGCGAG [JL SSNG1 1.47] (Eterna round: R96, puzzle: Same State NG 1)				0.0492		
AUAGUUGCCGAAGGAUAUGAUGAGGAUCACCCAUCAGAAGGUUGGCUAUUGGGCUGACAUGAGGAUCACCCAUGUUUCGGUGUU (Eterna round: R96, puzzle: Same State NG 1)				0.0171	0.0192	0.0291
